The record followed here is publication doi:10.1101/089938v2.

Substrate in data set [1]: C[C@H](N)C(=O)O
As to the kind of experiment: racemization assay, HPLC of derivatized L- and D-Ala. The format is biochemical, Streptomyces coelicolor. As to conditions: L- to D-Ala direction.

Substrate in data set [2]: C[C@@H](N)C(=O)O
Described as above. As to conditions: D- to L-Ala direction. Type of data set: biochemical, Streptomyces coelicolor.

B1: AlrSco (alanine racemase from Streptomyces coelicolor A3(2), SCO4745) (Streptomyces coelicolor A3(2)) (protein)
chain: MSETTARRDADAVLRARAEIDLAALRANVRALRERAPGAALMAVVKADAYGHGAIPCARAAVAAGATWLGTATPQEALALRAAEPGLPDDVRIMCWLWTPGGPWREAVEARLDVSVSAMWAMEEVTGAARAAGVPARVQLKADTGLGRGGCQPGADWERLVGAALRAEEEGLLRVTGLWSHFACADEPGHPSIAAQLTRFREMTAYAEQRGLRPEVRHIANSPATLTLPDAHFDLVRPGIAMYGVSPSPEIGTPADFGLRPVMTLAASLALVKQVPGGHGVSYGHHYTTPGETTLGLVPLGYADGIPRHASSSGPVLVDGKWRTVAGRIAMDQFVVDLGGDRPEPGAEAVLFGPGDRGEPTAEDWAQAAGTIAYEIVTRIGSRVPRVYVNE
With B1, the values for the Km in data set [1] and in data set [2] were 6.3 mM and 8.9 mM, respectively.
